Patent US20250026827A1 (Alector, published 2025)
Like-named read-outs stand apart in the source and are kept apart here.

T1: mouse SIRPβ1 on CHO cells (mouse)
T1 construct: Whole entry
T1 chain: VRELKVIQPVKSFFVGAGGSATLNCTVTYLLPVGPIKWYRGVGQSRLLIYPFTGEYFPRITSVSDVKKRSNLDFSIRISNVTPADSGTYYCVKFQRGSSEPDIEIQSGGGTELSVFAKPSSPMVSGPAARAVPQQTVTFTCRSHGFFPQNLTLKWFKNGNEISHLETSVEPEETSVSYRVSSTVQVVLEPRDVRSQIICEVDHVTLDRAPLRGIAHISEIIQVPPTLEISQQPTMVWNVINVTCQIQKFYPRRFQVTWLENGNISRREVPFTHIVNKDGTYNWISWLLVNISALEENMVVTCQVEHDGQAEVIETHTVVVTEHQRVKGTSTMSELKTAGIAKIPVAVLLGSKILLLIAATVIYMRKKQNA

T2: mouse SIRPα on cells (mouse, UniProt P97797 32-513)
T2 construct: whole, on cells
T2 sequence (looked up): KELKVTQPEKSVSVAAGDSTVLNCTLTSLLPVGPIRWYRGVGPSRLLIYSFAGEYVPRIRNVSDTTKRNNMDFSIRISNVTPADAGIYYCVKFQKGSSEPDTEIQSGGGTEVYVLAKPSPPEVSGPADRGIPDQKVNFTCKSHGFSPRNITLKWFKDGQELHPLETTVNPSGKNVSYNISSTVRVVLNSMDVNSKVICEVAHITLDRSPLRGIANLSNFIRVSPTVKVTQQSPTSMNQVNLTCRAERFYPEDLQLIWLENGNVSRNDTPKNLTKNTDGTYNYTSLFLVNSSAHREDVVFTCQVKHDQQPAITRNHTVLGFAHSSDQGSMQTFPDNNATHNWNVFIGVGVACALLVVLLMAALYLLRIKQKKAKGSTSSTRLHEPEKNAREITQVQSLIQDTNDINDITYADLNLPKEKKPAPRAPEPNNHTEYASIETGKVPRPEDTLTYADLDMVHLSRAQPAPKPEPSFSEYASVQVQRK

T3: mouse SIRPα D1-Fc (mouse, UniProt P97797 32-150, limits assumed)
T3 construct: domain: D1
T3 sequence (looked up): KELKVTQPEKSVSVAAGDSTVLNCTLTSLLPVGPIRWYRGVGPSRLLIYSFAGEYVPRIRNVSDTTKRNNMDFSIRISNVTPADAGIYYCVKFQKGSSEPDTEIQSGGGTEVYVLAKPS


Assays:
[1] = biological target: T4, human SIRPβ1 isoform 1 on cells (human, UniProt O00241 30-398); assay: cell binding titration; target not given
T4 construct: On CHO cells (low level), on BWZ/BW5147.G.1.4 cells (reporter cells co-express human DAP12) or on primary human myeloid cells; also called huSIRPβ1; BWZ-huSIRPβ1

[2] = biological target: T4, human SIRPβ1 isoform 1 on cells; assay: flow cytometry
Experimental: (§1) Cells were then washed twice and incubated in 100 ul FACS buffer containing 0.5 μg/ml PE-conjugated secondary antibody for 30 minutes on ice. Cells were washed twice in cold FACS buffer and acquired on a BD FACS Canto. Data analysis and calculation of mean fluorescence intensity (MFI) values or 00 positive cells was performed with FlowJo (TreeStar) software version 10.0.7.
(§2) Given the high sequence similarity between receptors of the SIRPβ family, anti-SIRPβ1 antibodies were also screened for cross-reactivity to human SIRPα.

human SIRPα on cells [3] = biological target: T5, human SIRPα on cells (human, UniProt P78324 31-504); assay: flow cytometry
T5 construct: Whole entry
Experimental: as §1, §2

[4] = biological target: T1, mouse SIRPβ1 on CHO cells; assay: flow cytometry
Experimental: as §1, §2

[5] = biological target: T6, human SIRPβ1-Fc isoform 3 (Q5TFQ8) (human, UniProt Q5TFQ8 30-371, limits assumed); assay: ELISA on plate-coated huSirpB-Fc (Q5TFQ8.1), anti-human kappa-HRP, A450
T6 construct: Whole entry named; made in HEK293 cells; also called human SIRPβ1 isoform 3
Experimental: To ascertain if the selected anti-SIRPβ1 antibodies cross-reacted with other isoforms of human SIRPβ1 or with cynomolgus SIRPβ1, recombinant antigens based on human SIRPβ1 isoform 3 sequence and cynomolgus SIRPβ1 isoform 1 sequence were produced by transient transfection in HEK293 cells. Purified, Fc-tagged recombinant proteins were adsorbed onto 96-well plates at 1 μg/mL overnight at 4° C. Plates were subsequently washed with PBS+0.05% Tween-20 and blocked with 1% BSA+PBS for 2 hours at room temperature. Antibodies diluted in blocking buffer at 1 μg/mL were added to wells, serially diluted, and allowed to bind antigen overnight at 4° C. The following day, the primary antibodies were removed and anti-human kappa light chain antibody conjugated to horseradish peroxidase diluted 1:10,000 in blocking buffer were added to wells and incubated for 1 hour at room temperature. Plates were washed with PBS+0.05% Tween-20 and 100 μL of TMB substrate solution was added to wells to generate a colorimetric signal proportional to amount of anti-SIRPβ1 antibody bound to antigen. Once the reaction reached an appropriate color intensity, 100 μL of Stop solution was added to quench the enzyme.
(§3) Eight anti-SIRPβ1 antibodies (four parental antibodies and four corresponding affinity matured antibodies) were selected for analysis.

[6] = biological target: T7, Soluble, human SIRPβ1-Fc isoform 1 (O00241) (human, UniProt O00241 30-371, limits assumed); assay: ELISA, antigen coated
T7 construct: Whole entry named; also called human SIRPβ1 isoform 1
Text: Recombinant antigen based on the sequence of SIRPβ1 isoform 1 was used for selecting anti-SIRPβ1 antibodies from yeast library pools. To ascertain if the selected anti-SIRPβ1 antibodies cross-reacted with other isoforms of human SIRPβ1 or with cynomolgus SIRPβ1, recombinant antigens based on human SIRPβ1 isoform 3 sequence and cynomolgus SIRPβ1 isoform 1 sequence were produced by transient transfection in HEK293 cells. Purified, Fc-tagged recombinant proteins were adsorbed onto 96-well plates at 1 μg/mL overnight at 4° C. Plates were subsequently washed with PBS+0.05% Tween-20 and blocked with 1% BSA+PBS for 2 hours at room temperature. Antibodies diluted in blocking buffer at 1 μg/mL were added to wells, serially diluted, and allowed to bind antigen overnight at 4° C. The following day, the primary antibodies were removed and anti-human kappa light chain antibody conjugated to horseradish peroxidase diluted 1:10,000 in blocking buffer were added to wells and incubated for 1 hour at room temperature. Plates were washed with PBS+0.05% Tween-20 and 100 μL of TMB substrate solution was added to wells to generate a colorimetric signal proportional to amount of anti-SIRPβ1 antibody bound to antigen. Once the reaction reached an appropriate color intensity, 100 μL of Stop solution was added to quench the enzyme.
as §3

[7] = biological target: T8, human SIRPα domain 1 (D1) Fc fusion (human, UniProt P78324 32-149); assay: Octet, IgG avid
T8 construct: also called human SIRPα D1-Fc; Human SIRPα Fc; not shown: C-terminal human IgG1 Fc

human SIRPα on cells [8] = biological target: T5, human SIRPα on cells; assay: flow cytometry; remark: listed apart in the source
[9] = biological target: T1, mouse SIRPβ1 on CHO cells; assay: flow cytometry
[10] = biological target: T9, human SIRPβ1 domain 1 (D1) Fc fusion (human, UniProt O00241 30-148); assay: Octet, Fab monovalent
T9 construct: Made in HEK293/T cells with a heterologous signal peptide; also called Human SIRPβ1 D1-Fc; Human SIRPβ1-Fc; not shown: C-terminal human IgG1 Fc

[11] = biological target: T9, human SIRPβ1 domain 1 (D1) Fc fusion; assay: Octet, Fab monovalent; remark: listed apart in the source
Experimental: Briefly, Octet® affinity measurements were performed by loading IgGs on-line onto AHQ sensors. Sensors were equilibrated off-line in assay buffer for 30 min and then monitored on-line for 60 seconds for baseline establishment. For avid binding measurement, sensors with loaded IgGs were exposed to 100 nM antigen (human SIRPα or SIRPβ1 Fc fusion) for 3 min, and then transferred to assay buffer for 3 min for off-rate measurement. Additional avid binding was determined by loading biotinylated SIRPβ1 monomer on SA sensors and exposuring to 100 nM IgG in solution. Monovalent binding measurements were obtained by loading human SIRPβ1 Fc fusion antigens to AHQ sensor, followed by exposure to 100 nM anti-SIRPβ1 antibody Fab. Additional monovalent measurements were made by loading biotinylated human SIRPβ1 monomer to SA sensor followed by exposure to 100 nM Fab in solution. Kinetics data were fit using a 1:1 binding model in the data analysis software provided by ForteBio.

[12] = biological target: T4, human SIRPβ1 isoform 1 on cells; assay: flow cytometry titration, BWZ-huSIRPβ1 cells
Experimental: (§4) In these experiments, two antibodies previously described were used as positive controls: antibody 18D5 (an anti-SIRPβ antibody that cross-reacts with SIRPα and SIRPβ) and antibody KWAR23 (an anti-SIRPβ antibody that cross-reacts with SIRPα, SIRPβ, and SIRPγ). These antibodies were recombinantly produced on a human IgG4 backbone. […] Serial dilutions of each of the anti-SIRPβ1 monoclonal antibodies and control antibodies were added to 10⁵ cells and allowed to achieve binding equilibrium at 4° C. After addition of fluorescently-labeled secondary antibody and brief washing steps, MFI values as a function of titrated antibody concentration were recorded via FACS analysis.
In Table 14 below, EC50 values assign relative affinity by adding increasing concentrations of antibody variants to cells overexpressing SIRPβ 1. Receptor bound antibodies were detected by staining cells with anti-human IgG PE secondary antibody (Southern Biotech). Curves were fit using nonlinear regression analysis with Graphpad Prism 6 software.

human SIRPα on cells [13] = biological target: T5, human SIRPα on cells; assay: flow cytometry on BWZ cells overexpressing human SIRPα, fluorescent secondary antibody, MFI
Experimental: (§5) To determine antigen specificity of anti-SIRPβ1 antibodies of the present disclosure, cell-based affinity measurements were performed to ascertain the apparent affinities of affinity-matured anti-SIRPβ 1 antibodies to cell surface-expressed antigen. BW5147.G.1.4 cells, an immortalized mouse T-cell line, were engineered to overexpress human SIRPβ1 (BWZ-huSIRPβ1) or human SIRPα (BWZ-huSIRPα). Jurkat cells, an immortalized human T cell line, endogenously express SIRPγ.
as §4
(§6) Receptor bound antibodies were detected by staining cells with anti-human IgG PE secondary antibody (Southern Biotech). Curves were fit using nonlinear regression analysis with Graphpad Prism 6 software.

SIRPγ on Jurkat cells = biological target: T10, SIRPγ on Jurkat cells (human, UniProt Q9P1W8 29-387); assay: flow cytometry on Jurkat cells (endogenous SIRPγ), fold over isotype (MFI)
T10 construct: whole, on cells
Experimental: as §5, §4, §6

[14] = biological target: T4, human SIRPβ1 isoform 1 on cells; assay: flow cytometry; remark: listed apart in the source
mouse SIRPα on cells [15] = biological target: T2, mouse SIRPα on cells; assay: flow cytometry;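 on FOB: antibodies tested at 1 µg/ml for 30 min on ice against receptor-expressing cells, detected with a PE-labelled secondary antibody, read as mean fluorescence intensity relative to background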
human SIRPα on cells [16] = biological target: T5, human SIRPα on cells; assay: flow cytometry; remark: listed apart in the source
[17] = biological target: T1, mouse SIRPβ1 on CHO cells; assay: flow cytometry
mouse SIRPα D1-Fc = biological target: T3, mouse SIRPα D1-Fc; assay: Octet
[18] = biological target: T9, human SIRPβ1 domain 1 (D1) Fc fusion; assay: Octet, IgG avid
mouse SIRPα on cells [19] = biological target: T2, mouse SIRPα on cells; assay: flow cytometry; remark: listed apart in the source;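 on FOB: antibodies tested at 1 µg/ml for 30 min on ice against receptor-expressing cells, detected with a PE-labelled secondary antibody, read as mean fluorescence intensity relative to background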

T7 sequence (O00241 30-371 limits assumed, one chain of several): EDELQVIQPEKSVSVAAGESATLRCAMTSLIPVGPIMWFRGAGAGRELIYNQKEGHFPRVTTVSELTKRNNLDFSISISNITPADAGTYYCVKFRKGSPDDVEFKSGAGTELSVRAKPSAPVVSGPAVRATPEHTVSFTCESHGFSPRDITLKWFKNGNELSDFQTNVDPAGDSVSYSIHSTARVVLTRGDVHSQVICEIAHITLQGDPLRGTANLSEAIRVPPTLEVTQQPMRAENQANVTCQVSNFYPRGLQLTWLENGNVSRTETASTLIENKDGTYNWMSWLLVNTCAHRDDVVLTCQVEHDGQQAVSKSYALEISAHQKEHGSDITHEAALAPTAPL
T6 sequence (Q5TFQ8 30-371 limits assumed, one chain of several): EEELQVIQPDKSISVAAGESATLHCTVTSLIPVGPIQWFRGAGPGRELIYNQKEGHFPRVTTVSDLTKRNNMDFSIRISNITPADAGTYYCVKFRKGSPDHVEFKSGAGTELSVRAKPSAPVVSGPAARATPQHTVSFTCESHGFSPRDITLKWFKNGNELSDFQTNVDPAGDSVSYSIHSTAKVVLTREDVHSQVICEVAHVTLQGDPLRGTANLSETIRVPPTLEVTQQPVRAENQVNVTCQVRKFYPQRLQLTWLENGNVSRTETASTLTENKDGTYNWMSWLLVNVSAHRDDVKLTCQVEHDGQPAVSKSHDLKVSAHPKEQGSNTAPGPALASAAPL
T9 sequence (O00241 30-148 limits assumed): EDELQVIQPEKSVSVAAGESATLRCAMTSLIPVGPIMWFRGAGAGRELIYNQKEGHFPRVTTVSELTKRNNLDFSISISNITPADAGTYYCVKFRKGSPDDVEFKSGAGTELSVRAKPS
T4 sequence (O00241 30-398): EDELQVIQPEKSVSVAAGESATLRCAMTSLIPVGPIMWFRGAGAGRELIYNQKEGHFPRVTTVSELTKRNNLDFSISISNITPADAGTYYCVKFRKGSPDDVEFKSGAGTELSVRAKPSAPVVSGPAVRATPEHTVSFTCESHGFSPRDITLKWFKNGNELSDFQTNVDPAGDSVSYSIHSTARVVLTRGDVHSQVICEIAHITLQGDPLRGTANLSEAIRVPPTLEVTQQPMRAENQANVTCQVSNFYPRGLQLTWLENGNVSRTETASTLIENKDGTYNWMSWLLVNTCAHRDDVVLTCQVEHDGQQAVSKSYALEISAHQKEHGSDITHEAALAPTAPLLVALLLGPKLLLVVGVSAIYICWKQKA
T10 sequence (Q9P1W8 29-387): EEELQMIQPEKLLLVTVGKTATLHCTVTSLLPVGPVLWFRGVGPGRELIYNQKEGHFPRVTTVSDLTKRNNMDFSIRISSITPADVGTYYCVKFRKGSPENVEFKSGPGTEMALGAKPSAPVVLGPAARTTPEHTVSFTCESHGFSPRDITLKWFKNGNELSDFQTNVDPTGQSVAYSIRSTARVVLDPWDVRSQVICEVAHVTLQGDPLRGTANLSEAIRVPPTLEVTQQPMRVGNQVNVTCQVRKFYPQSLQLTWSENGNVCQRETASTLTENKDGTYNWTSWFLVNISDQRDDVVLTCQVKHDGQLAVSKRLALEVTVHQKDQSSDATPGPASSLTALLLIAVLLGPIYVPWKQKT

EC50 [1] [nM]	FOB [2] [fold over background]	FOB (human SIRPα on cells [3]) [fold over background]	FOB [4] [fold over background]	binding result [5]	EC50 [6] [nM]	binding result [7]	binding result (human SIRPα on cells [8])	binding result [9]	Kd [10] [nM]	Kd [11] [nM]	Binder	also measured
0.059	4	1	1	no binding (tested: 1 ug/mL)	0.045	no binding (tested: 100 nM)	no binding (tested: 1 ug/ml)	no binding (tested: 1 ug/ml)			SB-1-2 (antibody, V domains shown, IgG) VH: QVQLVESGGGVVQPGRSLRLSCAASGFTFGSFGMNWVRQAPGKGLEWVSAITASGGSTFYADSVKGRFTISRDNSKNTLYLQMNSLRAEDTAVYYCAKDFTEVVGWLGMDVWGQGTTVTVSS VL: EIVMTQSPGTLSLSPGERATLSCRASQSVSSSYLAWYQQKPGQAPRLLIYGASSRATGIPDRFSGSGSGTDFTLTISRLEPEDFAVYYCQLLGSSPRTFGGGTKVEIK	
									266	977	SB-2 Fab (Fab, V domains shown, Fab by papain digestion) VH: QVQLVESGGGVVQPGRSLRLSCAASGFTFSSYGMNWVRQAPGKGLEWVAVIWYDGSNKYYADSVKGRFTISRDNSKNTLYLQMNSLRAEDTAVYYCARDQTAAAAIWGMDVWGQGTTVTVSS VL: EIVLTQSPGTLSLSPGERATLSCRASQSVSSSYLAWYQQKPGQAPRLLIYGASSRATGIPDRFSGSGSGTDFTLTISRLEPEDFAVYYCQQSSSHPFTFGGGTKVEIK	
0.132	5	1	1	no binding (tested: 1 ug/mL)	0.029	no binding (tested: 100 nM)	no binding (tested: 1 ug/ml)	no binding (tested: 1 ug/ml)			SB-2-7 (antibody, V domains shown, IgG) VH: EVQLLESGGGLVQPGGSLRLSCAASGFTFARYGMHWVRQAPGKGLEWVSAISGLAGPTYADSVKGRFTISRDNSKNTLYLQMNSLRAEDTAVYYCARDQTAAAAIWGMDVWGQGTTVTVSS VL: EVVLTQSPGTLSLSPGERATLSCRASQSVSSSYLAWYQQKPGQAPRLLIYGASSRATGIPDRFSGSGSGTDFTLTISRLEPEDFAVYYCQQSSSHPFTFGGGTKVEIK	
									97.9	172	SB-1 Fab (Fab, V domains shown, Fab by papain digestion) VH: not shown VL: EIVMTQSPGTLSLSPGERATLSCRASQSVSSSYLAWYQQKPGQAPRLLIYGASSRATGIPDRFSGSGSGTDFTLTISRLEPEDFAVYYCQLLGSSPRTFGGGTKVEIK	
									126	151	SB-8 Fab (Fab, V domains shown, Fab by papain digestion) VH: QVQLQESGPGLVKPSETLSLTCAVSGYSISSGYYWGWIRQPPGKGLEWIGSIYHSGSTYYNPSLKSRVTISVDTSKNQFSLKLSSVTAADTAVYYCARGGAMTPAGMDVWGQGTTVTVSS VL: EIVMTQSPGTLSLSPGERATLSCRASQSVSSSYLAWYQQKPGQAPRLLIYGASNRATGIPDRFSGSGSGTDFTLTISRLEPEDFAVYYCQQVYSSPYTFGGGTKVEIK	
0.062	4	0	2			no binding (tested: 100 nM)		no binding (tested: 1 ug/ml)			SB-1-3 (antibody, V domains shown, IgG) VH: EVQLVESGGGLVKPGGSLRLSCAASGFTFSAYGMNWVRQAPGKGLEWVSAITSSGRSTYYADSVKGRFTISRDNSKNTLYLQMNSLRAEDTAVYYCAKDFTEVVGWLGMDVWGQGTTVTVSS VL: EIVMTQSPGTLSLSPGERATLSCRASQSVSSSYLAWYQQKPGQAPRLLIYGASSRATGIPDRFSGSGSGTDFTLTISRLEPEDFAVYYCQLLGSSPRTFGGGTKVEIK	EC50 [12]: 0.0284 nM; binding result (human SIRPα on cells [13]): no binding (tested: Log nM about 0.8 (about 7 nM)); binding result (SIRPγ on Jurkat cells): no binding (tested: Log nM about 1.8 (about 60 nM))
0.441	2	1	2	no binding (tested: 1 ug/mL)	0.022			no binding (tested: 1 ug/ml)			SB-8 (antibody, V domains shown, IgG; also called SB-8 (p)) VH: QVQLQESGPGLVKPSETLSLTCAVSGYSISSGYYWGWIRQPPGKGLEWIGSIYHSGSTYYNPSLKSRVTISVDTSKNQFSLKLSSVTAADTAVYYCARGGAMTPAGMDVWGQGTTVTVSS VL: EIVMTQSPGTLSLSPGERATLSCRASQSVSSSYLAWYQQKPGQAPRLLIYGASNRATGIPDRFSGSGSGTDFTLTISRLEPEDFAVYYCQQVYSSPYTFGGGTKVEIK	FOB [14]: 4.1 fold over background; FOB (mouse SIRPα on cells [15]): 1.2 fold over background; FOB (human SIRPα on cells [16]): 2.1 fold over background; FOB [17]: 1.7 fold over background; binding result (mouse SIRPα D1-Fc): no binding (tested: 100 nM); Kd [18]: 2.72 nM; binding result (mouse SIRPα on cells [19]): no binding (tested: 1 ug/ml)
											18D5 (antibody, V domains shown) VH: QVQLQQPGAELVRPGSSVKLSCKASGYTFTSYWVHWVKQRPIQGLEWIGNIDPSDSDTHYNQKFKDKASLTVDKSSSTAYMQLSSLTFEDSAVYYCVRGGTGTMAWFAYWGQGTLVTVSA VL: DVVMTQTPLSLPVSLGDQASISCRSSQSLVHSYGNTYLYWYLQKPGQSPKLLIYRVSNRFSGVPDRFSGSGSGTDFTLKISRVEAEDLGVYFCFQGTHVPYTFGSGTKLEIK	EC50 [12]: 0.477 nM; EC50 (read off the curve) (human SIRPα on cells [13]): ~0.2 nM
0.715	5	1	2		0.025	no binding (tested: 100 nM)	no binding (tested: 1 ug/ml)	no binding (tested: 1 ug/ml)			SB-40-21 (antibody, V domains shown, IgG) VH: QVQLVQSGAEVKKPGASVKVSCKASGYTFTSYYMVWVRQAPGQGLEWMGIINPSSGDTNYAQKFQGRVTMTRDTSISTAYMELSRLRSDDTAVYYCARDTGEYSYSPHGMDVWGQGTTVTVSS VL: EIVLTQSPATLSLSPGERATLSCRASQSVSSYLAWYQQKPGQAPRLLIYDSSNRATGIPARFSGSGSGTDFTLTISSLEPEDFAVYYCQQRDEHPPWTFGGGTKVEIK	
